Results taken from patent US20160355553A1 (Janssen / Centocor, published 2016).

Columns and labels:
[1] = target: mini1 cluster11 (A/Brisbane/59/2007) (influenza A virus H1N1, UniProt A8C8J4 18-565); assay: FACS on HEK293F
[2] = target: mini2 cluster11 (A/Brisbane/59/2007) (influenza A virus H1N1, UniProt A8C8J4 18-565); assay: FACS on HEK293F
[3] = target: mini3 cluster11 (A/Brisbane/59/2007) (influenza A virus H1N1, UniProt A8C8J4 18-565); assay: FACS on HEK293F
H3 Mini-HA cluster 1 = H3 Mini-HA cluster 1 (influenza A virus H3N2, UniProt O11283 17-566); assay: FACS on HEK293F [D00010 FIG. 8B]
H3 Mini-HA cluster 1+2 = H3 Mini-HA cluster 1+2 (influenza A virus H3N2, UniProt O11283 17-566); assay: FACS on HEK293F [D00010 FIG. 8B]
H3 Mini-HA cluster 1+3 = H3 Mini-HA cluster 1+3 (influenza A virus H3N2, UniProt O11283 17-566); assay: FACS on HEK293F [D00010 FIG. 8B]
H3 Mini-HA cluster 1+4 = H3 Mini-HA cluster 1+4 (influenza A virus H3N2, UniProt O11283 17-566); assay: FACS on HEK293F [D00010 FIG. 8B]
H3 Mini-HA cluster 1+6 = H3 Mini-HA cluster 1+6 (influenza A virus H3N2, UniProt O11283 17-566); assay: FACS on HEK293F [D00010 FIG. 8B]
H3 Mini-HA cluster 1+7 = H3 Mini-HA cluster 1+7 (influenza A virus H3N2, UniProt O11283 17-566); assay: FACS on HEK293F [D00010 FIG. 8B]
H3 Mini-HA cluster 1+8 = H3 Mini-HA cluster 1+8 (influenza A virus H3N2, UniProt O11283 17-566); assay: FACS on HEK293F [D00010 FIG. 8B]
H3-mini2 = H3-mini2 (influenza A virus H3N2, UniProt O11283 17-566); assay: FACS on HEK293F [D00012 FIG. 9B]
H3-mini2-cl9+10 = H3-mini2-cl9+10 (influenza A virus H3N2, UniProt O11283 17-566); assay: FACS on HEK293F [D00012 FIG. 9B]
H3-mini2-cl9+11 = H3-mini2-cl9+11 (influenza A virus H3N2, UniProt O11283 17-566); assay: FACS on HEK293F [D00012 FIG. 9B]
H3-mini2-cl9+10+11 = H3-mini2-cl9+10+11 (influenza A virus H3N2, UniProt O11283 17-566); assay: FACS on HEK293F [D00012 FIG. 9B]
H3-mini2-cl9+10+11-tri = H3-mini2-cl9+10+11-tri (influenza A virus H3N2); assay: FACS on HEK293F [D00012 FIG. 9B]
H3mini2-cl9+10+11-GCN4 = H3mini2-cl9+10+11-GCN4 (influenza A virus H3N2); assay: FACS on HEK293F [D00012 FIG. 9B]
H3-mini2-cl9+10+11+12 = H3-mini2-cl9+10+11+12 (influenza A virus H3N2, UniProt O11283 17-566); assay: FACS on HEK293F [D00012 FIG. 9B]
H3-mini2-cl9+10+12 = H3-mini2-cl9+10+12 (influenza A virus H3N2, UniProt O11283 17-566); assay: FACS on HEK293F [D00012 FIG. 9B]
[4] = target: H3-mini2-cl9+10+11+12-GCN4 (influenza A virus H3N2, UniProt O11283 17-566); assay: FACS on HEK293F [D00012 FIG. 9B]
[5] = target: H3-mini2-cl9+10+11+12-tri (influenza A virus H3N2, UniProt O11283 17-566); assay: FACS on HEK293F [D00012 FIG. 9B]
H3-mini2-cl9+13 = H3-mini2-cl9+13 (influenza A virus H3N2, UniProt O11283 17-566); assay: FACS on HEK293F [D00012 FIG. 9B]
H3-mini2-cl9+10+11+13 = H3-mini2-cl9+10+11+13 (influenza A virus H3N2, UniProt O11283 17-566); assay: FACS on HEK293F [D00012 FIG. 9B]
[6] = target: H3-mini2-cl9+10+11+13-GCN4 (influenza A virus H3N2); assay: FACS on HEK293F [D00012 FIG. 9B]
[7] = target: H3-mini2-cl9+10+11+13-tri (influenza A virus H3N2); assay: FACS on HEK293F [D00012 FIG. 9B]
H3-mini3-cl9+10+11+12+14 = H3-mini3-cl9+10+11+12+14 (influenza A virus H3N2, UniProt O11283 17-566); assay: FACS on HEK293F [D00012 FIG. 9B]
H3-mini4-cl9+10+11+12+14 = H3-mini4-cl9+10+11+12+14 (influenza A virus H3N2, UniProt O11283 17-566); assay: FACS on HEK293F [D00012 FIG. 9B]
[8] = target: H3 Full-length A/Hong Kong/1/1968 (influenza A virus H3N2, UniProt Q91MA7 17-566); assay: FACS on HEK293F [D00014 FIG. 10B]

Measured: binding result

B1: CR6261 (antibody, V domains shown)
VH: EVQLVESGAEVKKPGSSVKVSCKASGGPFRSYAISWVRQAPGQGPEWMGGIIPIFGTTKYAPKFQGRVTITADDFAGTVYMELSSLRSEDTAMYYCAKHMGYQVRETMDVWGKGTTVTVSS
VL: QSVLTQPPSVSAAPGQKVTISCSGSSSNIGNDYVSWYQQLPGTAPKLLIYDNNKRPSGIPDRFSGSKSGTSATLGITGLQTGDEANYYCATWDRRPTAYVVFGGGTKLTVLG
binds: [1] | [2] | [3]
no binding (tested: 5 ug/ml): all other assays above
